# Test results as given in patent publication US20040142455A1.
# Legend:
# [1] = molecular target: Crotalus durissus terrificus (C.d.t.) venom; test: ELISA on C.d.t. venom; dilution 1:312,500
# [2] = molecular target: Crotalus durissus terrificus (C.d.t.) venom; test: ELISA on C.d.t. venom; dilution 1:62,500
substance,measurement,setting,value
preimmune IgY (antibody),ELISA absorbance,[1],0.01 absorbance
same,ELISA absorbance,[2],0.001 absorbance
